According to publication PMC4172209 (2014):
Values belong to the molecule of their own block, whether it stands above or below them. Where no end group is shown, it is not given here. The star is where a group is joined. FITC = O=C1OC2(c3ccc(O)cc3Oc3cc(O)ccc32)c2ccc(NC(=S)*)cc21; βAla = NCCC(=O)O

What was measured:
[1] = target: NHERF1 PDZ1 (Homo sapiens) (UniProt O14745); conditions: cited from earlier work
[2] = target: T1, PTH1R C-terminal peptide (FITC-PTH1Rct) (Homo sapiens); experiment: fluorescence polarization
T1 chain: {FITC-βAla}-PERPPALLQEEWETVM

Molecule: PTH1R C-terminal peptide C-terminus (from UniProt Q03431)
Kd [1]: 11 µM

Kd [2]: 19 µM
B1: NHERF1 PDZ1 1-140 (protein)
chain: MSADAAAGAPLPRLCCLEKGPNGYGFHLHGEKGKLGQYIRLVEPGSPAEKAGLLAGDRLVEVNGENVEKETHQQVVSRIRAALNAVRLLVVDPETDEQLQKLGVQVREELLRAQEAPGQAEPPAAAEVQGAGNENEPREA
